Blank lines part the entries; values can stand above or below the molecule they belong to.
Key:
[1] = target: MBP-Vps24-2-ssrA (Saccharomyces cerevisiae) (UniProt P36095)
[2] = target: mixed Vps4 hexamer of full-length Vps4^CF and Vps4^(CF 206C ΔMIT) (Saccharomyces cerevisiae) (UniProt P52917); assay: cross-linking

HDX-MS: unfolded proportion of the MBP peptide 347-360 at 10, 30 and 60 s [1]: 30%
Molecule: ClpX (from UniProt P0A6H1 1-424) (enzyme)

cross-linking efficiency relative to Vps24-2^136C [2]: 60%
B1: Vps24-2^92C (I92C single cysteine mutant of Vps24-2) (protein)
chain: MDYIKKAIWGPDPKEQQRRIRSVLRKNGRNIEKSLRELTVLQNKTQQLIKKSAKKNDVRTVRLYAKELYQINKQYDRMYTSRAQLDSVRMKCDEAIRMNTLSNQMADSAGLMREVNSLVRLPQLRNTMIELEKELMKSGIISEMVDDTMESVGDVGEEMDEAVDEEVNKIVEQYTNEKFSQLQSTPQNLVSNAPIAETAMGIPEPIGAGSEFHGNPDDDLQARLNTLKKQT
modifications: Cys92 activated as a mixed disulfide with DTNB

From article PMC4456219
